The values below come from the supplement of paper PMC6755084.

The series deals with F1*sub RNA substrate (template-directed ligation). In words: fraction ligated after 30 min (ligated reads / total reads); higher = more ligase activity; sequences stand for … in GAGACCGCAACTGAAAAGTTGT…AGTTCTGCACGTAGAAGCAAAAGGC
The settings on record: 42 °C. A digest of the protocol: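 Templates from an oligo pool were PCR-amplified, transcribed with T7 and gel-purified to give the ribozyme variants. Ligated and unligated products were separated on gel, reverse transcribed using barcoded primers, and read on a MiSeq. A quality filter of ≥20 was applied to core bases. Fraction ligated was taken as ligated reads as a share of all reads per variant.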
Take “TATCCTTGTCGTAAGAACTTTGGTGGGTTGA [3d1078]”: the fraction ligated came out at 0.0718.
For “TATCCTTGTCGTAAGAATTTGGATGGGTTGA [3d1075]”, the fraction ligated is 0.79.
The value for “TATCCTTGTCGTAAGACACTGGATGGGTTGA [3d1097]” was 0.756.
“TATCCTTGTCGTAAGACACTTGATGGGTTGA [3d1098]” yielded a fraction ligated of 0.745.
The value for “TATCCTTGTCGTAAGACACTTGGAGGGTTGA [3d1100]” was 0.00692.
The figure for “TATCCTTGTCGTAAGACACTTGGATGGGTTA [3d1102]” is 0.402; for “TATCCTTGTCGTAAGACACTTGGATGGGTTG [3d1103]” it is 0.742; for “TATCCTTGTCGTAAGACACTTGGATGGTTGA [3d1101]” it is 0.0445.
The value for “TATCCTTGTCGTAAGACACTTGGTGGGTTGA [3d1099]” was 0.265.
Take “TATCCTTGTCGTAAGACACTTTATGGGTTGA [3d1104]”: the fraction ligated came out at 0.0278.
The value for “TATCCTTGTCGTAAGACACTTTGAGGGTTGA [3d1106]” was 0.0265.
“TATCCTTGTCGTAAGACACTTTGATGGGTTA [3d1108]” gave a fraction ligated of 0.644.
Regarding “TATCCTTGTCGTAAGACACTTTGATGGGTTG [3d1109]”, the fraction ligated was determined as 0.749.
The figure for “TATCCTTGTCGTAAGACACTTTGATGGTTGA [3d1107]” is 0.054.
“TATCCTTGTCGTAAGACACTTTGGAGGGTTA [3d1115]” had a fraction ligated of 0.00568.
“TATCCTTGTCGTAAGACACTTTGGAGGGTTG [3d1116]” returned a fraction ligated of 0.00286.
Turning to “TATCCTTGTCGTAAGACACTTTGGAGGTTGA [3d1114]”, the fraction ligated stood at 0.00283.
In turn, “TATCCTTGTCGTAAGACACTTTGGATGGGTT [3d1119]” returned a fraction ligated of 0.0366.
The figure for “TATCCTTGTCGTAAGACACTTTGGATGGGTTA [2d107]” is 0.401; for “TATCCTTGTCGTAAGACACTTTGGATGGGTTG [2d108]” it is 0.781.
The figure for TATCCTTGTCGTAAGACACTTTGGATGGGTTGA [1d5] is 0.789.
The figure for “TATCCTTGTCGTAAGACACTTTGGATGGTTA [3d1117]” is 0.0143.
In the case of “TATCCTTGTCGTAAGACACTTTGGATGGTTG [3d1118]”, the fraction ligated turned out to be 0.0169.
The value for “TATCCTTGTCGTAAGACACTTTGGATGGTTGA [2d106]” was 0.0489; that for “TATCCTTGTCGTAAGACACTTTGGGGGTTGA [3d1110]” was 0.0067.
On to “TATCCTTGTCGTAAGACACTTTGGTGGGTTA [3d1112]”, for which the fraction ligated amounted to 0.0152.
Sequence “TATCCTTGTCGTAAGACACTTTGGTGGGTTG [3d1113]” came in with a fraction ligated of 0.0948.
Take “TATCCTTGTCGTAAGACACTTTGGTGGTTGA [3d1111]”: the fraction ligated stood at 0.0166.
The value for “TATCCTTGTCGTAAGACACTTTGTGGGTTGA [3d1105]” was 0.0549.
“TATCCTTGTCGTAAGACATTGGATGGGTTGA [3d1090]” yielded a fraction ligated of 0.772.
“TATCCTTGTCGTAAGACATTTGATGGGTTGA [3d1091]” yielded a fraction ligated of 0.775.
The figure for “TATCCTTGTCGTAAGACATTTGGAGGGTTGA [3d1093]” is 0.0135; for “TATCCTTGTCGTAAGACATTTGGATGGGTTA [3d1095]” it is 0.455.
The figure for “TATCCTTGTCGTAAGACATTTGGATGGGTTG [3d1096]” is 0.772; for “TATCCTTGTCGTAAGACATTTGGATGGTTGA [3d1094]” it is 0.0378.
The value for “TATCCTTGTCGTAAGACATTTGGTGGGTTGA [3d1092]” was 0.237; that for “TATCCTTGTCGTAAGACCTTGGATGGGTTGA [3d1083]” was 0.756.
On to “TATCCTTGTCGTAAGACCTTTGATGGGTTGA [3d1084]”, for which the fraction ligated was found to be 0.762.
Turning to “TATCCTTGTCGTAAGACCTTTGGAGGGTTGA [3d1086]”, the fraction ligated came out at 0.0073.
“TATCCTTGTCGTAAGACCTTTGGATGGGTTA [3d1088]” had a fraction ligated of 0.347.
The value for “TATCCTTGTCGTAAGACCTTTGGATGGGTTG [3d1089]” was 0.762; that for “TATCCTTGTCGTAAGACCTTTGGATGGTTGA [3d1087]” was 0.0339.
“TATCCTTGTCGTAAGACCTTTGGTGGGTTGA [3d1085]” registered a fraction ligated of 0.212.
The figure for “TATCCTTGTCGTAAGACTTTGGATGGGTTGA [3d1065]” is 0.76; for “TATCCTTGTCGTAAGCACTTGGATGGGTTGA [3d1068]” it is 0.685; for “TATCCTTGTCGTAAGCACTTTGATGGGTTGA [3d1069]” it is 0.754.
As to “TATCCTTGTCGTAAGCACTTTGGAGGGTTGA [3d1071]”, the fraction ligated is 0.0111.
The figure for “TATCCTTGTCGTAAGCACTTTGGATGGGTTA [3d1073]” is 0.381.
Regarding “TATCCTTGTCGTAAGCACTTTGGATGGGTTG [3d1074]”, the fraction ligated turned out to be 0.768.
The figure for “TATCCTTGTCGTAAGCACTTTGGATGGTTGA [3d1072]” is 0.0464.
The value for “TATCCTTGTCGTAAGCACTTTGGTGGGTTGA [3d1070]” was 0.0868.
The value for “TATCCTTGTCGTAAGCATTTGGATGGGTTGA [3d1067]” was 0.763.
With “TATCCTTGTCGTAAGCCTTTGGATGGGTTGA [3d1066]”, the fraction ligated came to 0.75.
“TATCCTTGTCGTAGAACTTTGGATGGGTTGA [3d1045]” showed a fraction ligated of 0.792.
The figure for “TATCCTTGTCGTAGACACTTGGATGGGTTGA [3d1048]” is 0.782.
The figure for “TATCCTTGTCGTAGACACTTTGATGGGTTGA [3d1049]” is 0.804.
The figure for “TATCCTTGTCGTAGACACTTTGGAGGGTTGA [3d1051]” is 0.00532.
The sequence “TATCCTTGTCGTAGACACTTTGGATGGGTTA [3d1053]” came in with a fraction ligated of 0.398.
For “TATCCTTGTCGTAGACACTTTGGATGGGTTG [3d1054]”, the fraction ligated worked out at 0.786.
The value for TATCCTTGTCGTAGACACTTTGGATGGGTTGA [2d96] was 0.79; that for “TATCCTTGTCGTAGACACTTTGGATGGTTGA [3d1052]” was 0.0426; that for “TATCCTTGTCGTAGACACTTTGGTGGGTTGA [3d1050]” was 0.26.
The figure for “TATCCTTGTCGTAGACATTTGGATGGGTTGA [3d1047]” is 0.768.
The value for “TATCCTTGTCGTAGACCTTTGGATGGGTTGA [3d1046]” was 0.773; that for “TATCCTTGTCGTAGCACTTTGGATGGGTTGA [3d1044]” was 0.774; that for “TATCCTTGTCGTGACACTTTGGATGGGTTGA [3d1042]” was 0.798.
Sequence “TATCCTTGTCTAAACACTTTGGATGGGTTGA [3d1017]” registered a fraction ligated of 0.793.
The figure for “TATCCTTGTCTAAGAACTTTGGATGGGTTGA [3d1019]” is 0.764; for “TATCCTTGTCTAAGACACTTGGATGGGTTGA [3d1022]” it is 0.764.
The figure for “TATCCTTGTCTAAGACACTTTGATGGGTTGA [3d1023]” is 0.748.
The value for “TATCCTTGTCTAAGACACTTTGGAGGGTTGA [3d1025]” was 0.0172.
In the case of “TATCCTTGTCTAAGACACTTTGGATGGGTTA [3d1027]”, the fraction ligated was 0.394.
The value for “TATCCTTGTCTAAGACACTTTGGATGGGTTG [3d1028]” was 0.773.
TATCCTTGTCTAAGACACTTTGGATGGGTTGA [2d94]: the fraction ligated stood at 0.798.
The value for “TATCCTTGTCTAAGACACTTTGGATGGTTGA [3d1026]” was 0.047; that for “TATCCTTGTCTAAGACACTTTGGTGGGTTGA [3d1024]” was 0.19; that for “TATCCTTGTCTAAGACATTTGGATGGGTTGA [3d1021]” was 0.793.
In the case of “TATCCTTGTCTAAGACCTTTGGATGGGTTGA [3d1020]”, the fraction ligated came to 0.786.
The value for “TATCCTTGTCTAAGCACTTTGGATGGGTTGA [3d1018]” was 0.765; that for “TATCCTTGTCTAGACACTTTGGATGGGTTGA [3d1016]” was 0.763; that for “TATCCTTGTGAAGACACTTTGGATGGGTTGA [3d1001]” was 0.792.
“TATCCTTGTGTAAACACTTTGGATGGGTTGA [3d1003]” yielded a fraction ligated of 0.8.
The figure for “TATCCTTGTGTAAGAACTTTGGATGGGTTGA [3d1005]” is 0.818; for “TATCCTTGTGTAAGACACTTGGATGGGTTGA [3d1008]” it is 0.367; for “TATCCTTGTGTAAGACACTTTGATGGGTTGA [3d1009]” it is 0.799.
Take “TATCCTTGTGTAAGACACTTTGGAGGGTTGA [3d1011]”: the fraction ligated was 0.0114.
The figure for “TATCCTTGTGTAAGACACTTTGGATGGGTTA [3d1013]” is 0.406.
In turn, “TATCCTTGTGTAAGACACTTTGGATGGGTTG [3d1014]” showed a fraction ligated of 0.745.
The sequence TATCCTTGTGTAAGACACTTTGGATGGGTTGA [2d93] displayed a fraction ligated of 0.792.
In turn, “TATCCTTGTGTAAGACACTTTGGATGGTTGA [3d1012]” came in with a fraction ligated of 0.0285.
The value for “TATCCTTGTGTAAGACACTTTGGTGGGTTGA [3d1010]” was 0.062.
In turn, “TATCCTTGTGTAAGACATTTGGATGGGTTGA [3d1007]” had a fraction ligated of 0.796.
The figure for “TATCCTTGTGTAAGACCTTTGGATGGGTTGA [3d1006]” is 0.801.
The figure for “TATCCTTGTGTAAGCACTTTGGATGGGTTGA [3d1004]” is 0.788; for “TATCCTTGTGTAGACACTTTGGATGGGTTGA [3d1002]” it is 0.808.
As for “TATCCTTGTTAAGACACTTTGGATGGGTTGA [3d1000]”, the fraction ligated came out at 0.793.
The value for TATCCTTTCGAAGACACTTTGGATGGGTTGA [3d970] was 0.8.
